Data reported in patent publication US20140199318A1.

Target: patient IgG preparation from the immunoadsorption column regenerate of an α1-AR agAAB positive patient with mild vascular dementia
Assay: competition ELISA: free loop1 peptide (0.3 nM to 5 µM) preincubated with patient IgG, binding to immobilised loop1 peptide read

EC50: 30 nM
Binder: LGYWAFGRVFCN [free (soluble) synthetic peptide corresponding to extracellular loop1 of the human α1-AR]
